PMC9934059, “Characterization of a glycan-binding complex of minor pilins completes the analysis of Streptococcus sanguinis type 4 pili subunits” (Proceedings of the National Academy of Sciences of the …, 2023)

What was measured:
PilC [1] = target: T1, PilC (Streptococcus sanguinis, UniProt A0A0B7GRV8); assay: ITC (three independent experiments); supported by glycan microarray; type: binding
T1 construct: 6His–PilCΔpilin (lacking the pilin moiety; Ig-like and lectin modules), strain 2908

[2] = target: 6His–PilC (Streptococcus sanguinis 2908); assay: ITC; MicroCal ITC200; average ± SD of three (mutants: 2 to 3) independent experiments
6His–PilC = assay: ITC; settings: parent: est. 1.0; read off a plot
PilC [3] = target: T2, PilC (Streptococcus sanguinis, UniProt A0A0B7GRV8, K358A); assay: ITC of mutant, KD ratio to WT (reduced affinity); type: binding
T2 construct: PilCΔpilin (lacking the pilin moiety), strain 2908
T2 sequence (A0A0B7GRV8 122-486 K358A): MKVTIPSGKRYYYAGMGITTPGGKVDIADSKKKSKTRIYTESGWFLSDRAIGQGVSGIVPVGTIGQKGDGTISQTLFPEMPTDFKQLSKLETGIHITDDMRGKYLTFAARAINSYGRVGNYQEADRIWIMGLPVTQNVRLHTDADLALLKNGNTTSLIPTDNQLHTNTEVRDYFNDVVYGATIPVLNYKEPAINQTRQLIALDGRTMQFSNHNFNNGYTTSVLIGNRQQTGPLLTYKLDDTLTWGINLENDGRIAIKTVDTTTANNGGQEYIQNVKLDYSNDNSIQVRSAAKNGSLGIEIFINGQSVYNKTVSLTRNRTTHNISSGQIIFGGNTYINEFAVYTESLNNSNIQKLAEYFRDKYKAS

[4] = target: 6His–PilA (Streptococcus sanguinis 2908); assay: SEC-MALS; ÄKTA Prime, S200 10/300 GL column, Wyatt MALS detector; 6His–PilA and 6His–PilC separately and after mixing equimolar amounts
[5] = target: 6His–PilC (Streptococcus sanguinis 2908); assay: as above

With `CC(=O)N[C@H]1[C@H]([C@H](O)[C@H](O)CO)O[C@@](O[C@H]2[C@@H](O)[C@@H](CO)O[C@@H](O[C@H]3[C@H](O)[C@@H](NC(C)=O)C(O)O[C@@H]3CO)[C@@H]2O)(C(=O)O)C[C@@H]1O` (stereo partly drawn) [3′-SLN, 3′-sialyl-N-acetyllactosamine] the Kd (PilC [1]) was 144 ± 7.36 µM.

With “PilA_(T87A) (from UniProt A0A0B7GNW3 33-164) (domain or fragment)” the percent of the wild-type (WT) binding (KD ratio to the WT) [2] was 38.3%.

Work on 6His–PilA A68S yielded a ratio to parent (6His–PilC) of 0.87.

In the case of `CC(=O)N[C@H]1[C@H]([C@H](O)[C@H](O)CO)O[C@@](O[C@H]2[C@@H](O)[C@@H](CO)O[C@@H](O[C@H]3[C@H](O)[C@@H](O)C(O)O[C@@H]3CO)[C@@H]2O)(C(=O)O)C[C@@H]1O` (stereo partly drawn) [3′-SL, 3′-sialyllactose], the Kd (PilC [1]) is reported as 79.1 ± 0.36 µM and the “% of WT binding” value (PilC [3]) is reported as 39.3 ± 1.4 % of WT binding.

With 6His–PilA K85A the ratio to parent (6His–PilC) was 0.98.

Molecule 6His–PilA (domain or fragment) has a Kd [2] of 0.0238 µM, a stoichiometry N [4] of 2 and a stoichiometry N [5] of 1.
